B1: endogenous ZFYVE27 of NSC34 cells (natural protein, mouse (endogenous in NSC34), UniProt Q3TXX3 1-415, looked up)
chain: MQTSDRDLSGPEASPSGMPEVLSECPPAPTKSAAFDLFNLVLSYKRLEIYLEPLKDAGDGVRYLLRWQMPLCSLLTCLGLNILFLTLNEGAWYSMGALMISVPALLGYLQEVCRGQLPESELMRRKYHSIRQEDLQRVRLSRVHLSRPEAVAEVKSFLIQLEAFLARLCYTCESAYRVLHWENPVVSSQFYGALLGMVCMLYLLPLCWVLALLNSTLFLGNGDFFRVVCEYRACLQRRMNPRQEECACESSALQGAGGRGLLDSSPAPTPTEDLTPGSVEEAEEAEPDEEFKDAIEETHLVVLEDEEGTPCPAEDELTLQDNGFLSKNEVLRSKVSRLTERLRKRYPTNNFGNCAGCAATFSVLKKRRSCSNCGNSFCSRCCSFKVPRSSMGATAPEAQRETVCVCASCNQTLSK
notes: ZFYVE27 expressed endogenously in NSC34 (a mouse embryonic spinal cord-neuroblastoma hybrid cell line); also called mo-ZFYVE27; di-ZFYVE27
B2: ZFYVE27^WT (full-length ZFYVE27, E2- or c-Myc-tagged, in mammalian cells) (natural protein, human, UniProt Q5T4F4-2 1-404, looked up)
chain: MQTSEREGSGPELSPSVMPEAPLESPPFPTKSPAFDLFNLVLSYKRLEIYLEPLKDAGDGVRYLLRWQMPLCSLLTCLGLNVLFLTLNEGAWYSVGALMISVPALLGYLQEVCRARLPDSELMRRKYHSVRQEDLQRGRLSRPEAVAEVKSFLIQLEAFLSRLCCTCEAAYRVLHWENPVVSSQFYGALLGTVCMLYLLPLCWVLTLLNSTLFLGNVEFFRVVSEYRASLQQRMNPKQEEHAFESPPPPDVGGKDGLMDSTPALTPTEDLTPGSVEEAEEAEPDEEFKDAIEEDDEGAPCPAEDELALQDNGFLSKNEVLRSKVSRLTERLRKRYPTNNFGNCTGCSATFSVLKKRRSCSNCGNSFCSRCCSFKVPKSSMGATAPEAQRETVFVCASCNQTLSK
notes: numbers count on: this 404-residue isoform; Each copy carries only one tag: E2 (vector pQM-N-Tag A) or six c-Myc tags (vector pCS2-myc); The two differently tagged copies are written as one molecule because the protein is tested against itself; With the E2-tagged deletion constructs the c-Myc copy was used; with GFP-Spastin and in the sucrose gradient the E2 copy; also called E2-ZFYVE27^WT; …

Legend:
[1] = target: the molecule itself; experiment: SDS-PAGE and immunoblot (SDS-resistant dimer); NSC34 cell extract, cytosolic (S-100) and membrane (P-100) fractions, immunoblot with ZFYVE27 antibody
[2] = target: the molecule itself; experiment: SDS-PAGE and immunoblot (SDS-resistant dimer); lysates of NIH-3T3 overexpressing E2-ZFYVE27^WT or c-Myc-ZFYVE27^WT, immunoblot with ZFYVE27 antibody

Row | Protein | stoichiometry N [1] | stoichiometry N [2]
1 | B1 | 2 | 
2 | B2 |  | 2

Reference: article PMC3247280, “Oligomerization of ZFYVE27 (Protrudin) Is Necessary to Promote Neurite Extension” (PLoS ONE, 2011)
